Experimental data reported in patent publication US20220389111A1 (SHANGHAI EPIMAB BIOTHERAPEUTICS, published 2022).
Residue numbers refer to the chain shown, from its start.

What was measured:
[1] = biological target: T1, human CD39 protein (recombinant) (human, UniProt P49961 38-478, limits assumed); assay: ELISA on coated human CD39 protein
T1 construct: Soluble recombinant protein coated on ELISA plates and used in the protein-based ATPase assay; also called recombinant CD39 protein; recombinant purified human CD39 protein
T1 sequence: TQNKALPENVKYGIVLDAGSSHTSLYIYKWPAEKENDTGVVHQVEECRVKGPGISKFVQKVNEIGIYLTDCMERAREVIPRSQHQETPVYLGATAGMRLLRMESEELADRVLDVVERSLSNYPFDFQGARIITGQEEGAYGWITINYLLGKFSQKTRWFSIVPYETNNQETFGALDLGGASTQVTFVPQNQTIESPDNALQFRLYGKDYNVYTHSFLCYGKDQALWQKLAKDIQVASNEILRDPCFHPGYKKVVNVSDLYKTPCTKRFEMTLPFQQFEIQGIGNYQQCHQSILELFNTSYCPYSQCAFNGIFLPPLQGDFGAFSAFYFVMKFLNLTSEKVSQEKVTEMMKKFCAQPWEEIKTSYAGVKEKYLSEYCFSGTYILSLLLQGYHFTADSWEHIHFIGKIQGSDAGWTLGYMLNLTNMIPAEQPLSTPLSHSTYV
Method: To determine if anti-CD39 mAbs bind to human CD39, ELISA plates were incubated overnight at 4° C. with human CD39 protein or mouse CD39 protein diluted in PBS, pH7.4 buffer at 1 μg/ml. Plates were washed four times in washing buffer (PBS containing 0.05% Tween 20), and blocked for 1 hour at 37° C. with 200 μl per well blocking buffer (1% BSA in PBS containing 0.05% Tween 20). After blocking buffer was removed, hybridoma supernatant or diluted purified Abs were added to the wells at 100 μl per well and incubated at 37° C. for 1 hour. The wells were washed four times with washing buffer, and anti-mouse HRP (for mouse anti-human CD39 Ab characterization) or anti-rat HRP (for rat anti-mouse CD39 Ab characterization) (Sigma) were 1:5000 diluted and added to the wells at 100 μl per well. The plates were incubated for 1 hour at 37° C. and washed four times in washing buffer. 100 μl of tetramethylbenzidine (TMB) chromogenic solution were added per well. Following color development, the reaction was stopped with 1N HCl, and absorbance at 450 nm was measured. The data were proceeded by GraphPad software.
Humanized antibodies HuEM04-38-6 to HuEM0004-38-20 and chimeric antibodies EM04-38c, EM004-38c1, and EM0004-38c2 were tested for CD39 specific binding by ELISA as described in Example 1.2 and for inhibition of protein-based ATPase activity as described in Example 1.3.

[2] = biological target: T1, human CD39 protein (recombinant); assay: cell-based or functional assay

B1: HuEM0004-38-19 (antibody, human IgG1, kappa, L234A L235A, V domains shown)
VH: EVQLVQSGAEVKKPGASVKVSCKASGYTFTSFWMHWVRQAPGQGLEWIGNINPRNGATKYNEKFRSRVTLTADKSISTAYMELSRLRSDDTAVYYCAREDYDEIYYAMDSWGQGTTVTVSS
VL: ENVLTQSPATLSLSPGERATLSCSASSSVIYMYWFQQKPGQSPRVLIYDTSNLASGVPARFSGSGSGTDYTLTISSLEPEDFAVYYCQQWSTYPLTFGQGTKLEIKR
notes: humanized mAb638, human IgG1/kappa
Which EC50 [1] does the source give for B1 here?
The EC50 was 0.02 µg/mL.

And the “ATPase inhibition IC50” value [2]?
Its value is 33.2 nM.

And the “ATPase inhibition, inhibition %” value [2]?
Its value is 99.2%.

B2: HuEM0004-38-20 (antibody, human IgG1, kappa, L234A L235A, V domains shown)
VH: B1 VH with R67K
VL: B1 VL
notes: as for B1
What does the source list for B2?
EC50 [1]: 0.031 µg/mL; ATPase inhibition IC50 [2]: 27.3 nM; ATPase inhibition, inhibition % [2]: 100%

B3: EM0004-38c (antibody, human IgG1, kappa, L234A L235A, V domains shown)
VH: QVQLQQPGTELVKPGASVKLSCKASGYTFTSFWMHWVKQRPGQGLEWIGNINPRNGATKYNEKFRSKVTLTADKTSSTAYMHLSSLTSEDSAVYYCAREDYDEIYYAMDSWGQGTSVTVSS
VL: QNVLTQSPAIMSASPGEKVTMTCSASSSVIYMYWFQQKPGSSPRVLIYDTSNLASGVPARFSGSGSGTSYSLTISRMEAEDAATYYCQQWSTYPLTFGAGTKLELKR
notes: chimeric mAb638; also called EM04-38c
For B3, which EC50 [1] is on record?
The EC50 was 0.014 µg/mL.

And the “ATPase inhibition IC50” value [2]?
The value was 24.2 nM.

What about the “ATPase inhibition, inhibition %” value [2] of the same binder?
Its value is 107%.

B4: EM0004-38c1 (antibody, human IgG1, kappa, L234A L235A, name in Kabat numbering, V domains shown)
VH: B3 VH with N55Q
VL: B3 VL
notes: chimeric mAb638 variant; also called EM004-38c1
With B4 as the binder, how does the EC50 [1] read?
The EC50 was 0.023 µg/mL.

What about the “ATPase inhibition IC50” value [2] of the same binder?
Its value is 15.6 nM.

And the “ATPase inhibition, inhibition %” value [2]?
The value was 102%.

B5: EM0004-38c2 (antibody, human IgG1, kappa, L234A L235A, name in Kabat numbering, V domains shown)
VH: B3 VH with G56A
VL: B3 VL
notes: chimeric mAb638 variant
What does the source list for B5?
EC50 [1]: 0.016 µg/mL; ATPase inhibition IC50 [2]: 14.3 nM; ATPase inhibition, inhibition % [2]: 103%
